{
  "source": "patent US20110014213A1",
  "about": "(JURIDICAL FDN THE CHEMO SERO THERAP RES INS, published 2011)",
  "key": {"[1]": {"biological_target": "T1, mouse α4 integrin (mouse, UniProt Q00651 41-1039)", "T1 construct": "whole, on cells; Control antigen; also called CHO/mα4", "T1 sequence (looked up)": "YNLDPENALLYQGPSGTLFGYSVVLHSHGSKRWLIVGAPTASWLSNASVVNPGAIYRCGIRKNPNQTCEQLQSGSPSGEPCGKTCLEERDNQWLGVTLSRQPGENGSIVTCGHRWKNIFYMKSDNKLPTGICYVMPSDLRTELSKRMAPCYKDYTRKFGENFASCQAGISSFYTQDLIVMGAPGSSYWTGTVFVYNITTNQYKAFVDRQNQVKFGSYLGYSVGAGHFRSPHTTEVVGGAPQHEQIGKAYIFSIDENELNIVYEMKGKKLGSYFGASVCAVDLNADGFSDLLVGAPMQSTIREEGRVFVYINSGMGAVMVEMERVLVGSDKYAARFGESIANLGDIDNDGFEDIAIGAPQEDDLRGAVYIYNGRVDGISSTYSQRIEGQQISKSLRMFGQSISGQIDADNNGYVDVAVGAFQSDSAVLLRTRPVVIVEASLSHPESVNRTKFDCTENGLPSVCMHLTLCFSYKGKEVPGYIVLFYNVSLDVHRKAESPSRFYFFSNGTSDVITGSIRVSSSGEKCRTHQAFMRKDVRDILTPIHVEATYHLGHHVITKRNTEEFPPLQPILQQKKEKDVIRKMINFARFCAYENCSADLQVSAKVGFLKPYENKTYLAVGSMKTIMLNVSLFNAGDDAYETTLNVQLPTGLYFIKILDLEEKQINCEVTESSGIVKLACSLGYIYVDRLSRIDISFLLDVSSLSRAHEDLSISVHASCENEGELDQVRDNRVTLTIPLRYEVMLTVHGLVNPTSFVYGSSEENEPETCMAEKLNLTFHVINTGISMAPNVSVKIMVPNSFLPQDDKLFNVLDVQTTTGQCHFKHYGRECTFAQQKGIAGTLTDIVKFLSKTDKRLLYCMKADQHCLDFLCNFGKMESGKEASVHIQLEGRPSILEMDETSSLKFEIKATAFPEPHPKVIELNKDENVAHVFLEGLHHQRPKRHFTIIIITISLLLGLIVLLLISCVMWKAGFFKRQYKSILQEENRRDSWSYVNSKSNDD", "experiment": "flow cytometry on CHO/mα4", "procedure": "As a result, the reactivity with mouse α9 and human α9 was confirmed. Although the reactivity with each of CHO and CHO/mα4 was also assessed in the same manner, the reactivity with mouse α4 was not observed (FIG. 6)."}, "[2]": {"biological_target": "T2, human α9 integrin (human, UniProt Q13797 30-1035)", "T2 sequence": "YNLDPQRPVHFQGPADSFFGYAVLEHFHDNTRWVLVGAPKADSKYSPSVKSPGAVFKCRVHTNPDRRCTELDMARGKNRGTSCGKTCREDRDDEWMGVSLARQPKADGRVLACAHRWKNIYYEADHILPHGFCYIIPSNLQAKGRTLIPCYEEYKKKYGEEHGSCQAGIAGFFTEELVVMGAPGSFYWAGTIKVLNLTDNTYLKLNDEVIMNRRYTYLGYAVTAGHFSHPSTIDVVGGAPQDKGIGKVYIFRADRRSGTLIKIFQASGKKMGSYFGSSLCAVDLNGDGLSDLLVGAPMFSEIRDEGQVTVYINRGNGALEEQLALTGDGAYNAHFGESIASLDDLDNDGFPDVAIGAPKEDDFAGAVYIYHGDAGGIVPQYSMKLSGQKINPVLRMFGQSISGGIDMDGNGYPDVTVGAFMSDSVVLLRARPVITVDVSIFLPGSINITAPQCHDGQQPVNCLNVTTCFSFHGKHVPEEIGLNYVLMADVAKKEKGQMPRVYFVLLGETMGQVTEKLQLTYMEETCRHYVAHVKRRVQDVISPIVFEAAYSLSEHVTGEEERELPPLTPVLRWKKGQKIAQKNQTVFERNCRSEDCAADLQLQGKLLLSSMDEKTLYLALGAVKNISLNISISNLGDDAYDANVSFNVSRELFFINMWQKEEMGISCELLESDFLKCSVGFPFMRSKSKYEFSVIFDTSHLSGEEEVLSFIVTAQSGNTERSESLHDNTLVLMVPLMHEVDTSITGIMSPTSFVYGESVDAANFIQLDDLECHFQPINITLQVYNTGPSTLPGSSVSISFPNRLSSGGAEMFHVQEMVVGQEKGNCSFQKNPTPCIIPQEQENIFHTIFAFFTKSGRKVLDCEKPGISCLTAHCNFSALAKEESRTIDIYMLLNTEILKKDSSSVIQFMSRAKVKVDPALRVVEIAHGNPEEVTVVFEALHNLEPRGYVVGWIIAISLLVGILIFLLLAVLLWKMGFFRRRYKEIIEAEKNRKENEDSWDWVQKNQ", "experiment": "cell-based or functional assay"}, "[3]": {"biological_target": "T3, mouse α9 integrin (mouse, UniProt B8JK39 29-1036)", "T3 chain": "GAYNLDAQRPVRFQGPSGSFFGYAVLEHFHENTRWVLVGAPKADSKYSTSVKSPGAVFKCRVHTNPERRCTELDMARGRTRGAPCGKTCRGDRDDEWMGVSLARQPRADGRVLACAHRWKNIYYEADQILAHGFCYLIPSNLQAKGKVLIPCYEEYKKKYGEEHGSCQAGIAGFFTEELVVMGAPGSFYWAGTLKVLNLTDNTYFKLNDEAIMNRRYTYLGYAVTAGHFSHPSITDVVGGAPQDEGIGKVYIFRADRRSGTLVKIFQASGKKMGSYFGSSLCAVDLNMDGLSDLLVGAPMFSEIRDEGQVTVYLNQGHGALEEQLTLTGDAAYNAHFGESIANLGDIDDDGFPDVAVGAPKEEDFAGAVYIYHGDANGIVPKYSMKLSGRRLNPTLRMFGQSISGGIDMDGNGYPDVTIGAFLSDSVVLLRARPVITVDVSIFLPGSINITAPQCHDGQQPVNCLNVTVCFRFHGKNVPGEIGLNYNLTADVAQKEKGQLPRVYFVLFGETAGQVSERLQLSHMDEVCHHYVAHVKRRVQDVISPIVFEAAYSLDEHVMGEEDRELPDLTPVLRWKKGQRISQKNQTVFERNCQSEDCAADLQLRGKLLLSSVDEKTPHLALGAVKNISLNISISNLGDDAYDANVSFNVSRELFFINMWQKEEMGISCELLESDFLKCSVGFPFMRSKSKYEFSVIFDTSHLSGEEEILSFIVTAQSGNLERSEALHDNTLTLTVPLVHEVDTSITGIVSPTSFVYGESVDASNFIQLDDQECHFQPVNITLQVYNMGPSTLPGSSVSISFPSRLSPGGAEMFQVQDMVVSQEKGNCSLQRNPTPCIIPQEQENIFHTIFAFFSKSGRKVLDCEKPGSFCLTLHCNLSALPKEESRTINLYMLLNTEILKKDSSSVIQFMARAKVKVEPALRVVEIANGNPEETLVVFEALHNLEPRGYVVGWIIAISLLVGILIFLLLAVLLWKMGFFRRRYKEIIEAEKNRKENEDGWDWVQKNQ", "experiment": "cell-based or functional assay"}},
  "data": [
    {"binder": "MA9-413 scFv-Fc (Fc fusion, Divalent scFv-Fc with mouse IgG1 Fc, expressed in CHO-DG44; also called ANM-2; not shown: Fc region of mouse IgG1 and its junction to the scFv) scFv: EVQLVESGGGVVRPGGSLRLSCAASGFAFGDYGMSWVRQAPGKGLEWVSGINWNGGSTGYADSVKGRFTTSRDNAKNSLYLQMNSLRAEDTALYYCARDENYDILTGYYYYGMDVWGQGTTVTVSSGGGGSGGGGSGGGGSQSVVTQPPSVSAAPGQKVTISCSGSSSNIGNNYVSWYQQLPGTAPKLLIYDNNKRPSGIPDRFSASKSGTSATLGITGLQTGDEADYYCGTWDSSLTVWAFGGGTKLTVLG", "values": [
      {"measurement": "binding result", "setting": "[1]", "value": "no binding"},
      {"measurement": "IC50 of inhibition of α9-dependent cell adhesion", "setting": "[2]", "value": 48.5, "unit": "µg/mL"},
      {"measurement": "IC50 of inhibition of α9-dependent cell adhesion", "setting": "[3]", "value": 0.34, "unit": "µg/mL"}
    ]}
  ]
}
